We go through 10 molecules from patent US20100310640A1.

What all share (conditions): remark: other sources report otherwise
Assay [1] deals with T1, HLA-DR DRB1*0101 (human).
T1 chain 1: not shown
T1 chain 2: not shown
Nature of the assay: radioligand inhibition, purified HLA-DR.

The target in the next assay is T2, HLA-DR DRB1*0802 (human).
T2 chain 1: not shown
T2 chain 2: not shown
Briefly: radioligand inhibition, purified HLA-DR.

For assay [2], the target named is T3, HLA-DR DRB5*0101 (human).
T3 chain 1: not shown
T3 chain 2: not shown
Briefly: radioligand inhibition, purified HLA-DR.

Assay [3] has as its target T4, HLA-DR DRB1*0404 (human).
T4 chain 1: not shown
T4 chain 2: not shown
Nature of the assay: radioligand inhibition, purified HLA-DR.

The target of assay [4] is T5, HLA-DR DRB1*0401 (human).
T5 chain 1: not shown
T5 chain 2: not shown
Nature of the assay: radioligand inhibition, purified HLA-DR.

Assay [5] addresses T6, HLA-DR DRB1*0405 (human).
T6 chain 1: not shown
T6 chain 2: not shown
Briefly: radioligand inhibition, purified HLA-DR.

The target in assay [6] is T7, HLA-DR DRB1*1101 (human).
T7 chain 1: not shown
T7 chain 2: not shown
Briefly: radioligand inhibition, purified HLA-DR.

The target in another assay is T8, HLA-DR DRB1*0901 (human).
T8 chain 1: not shown
T8 chain 2: not shown
Nature of the assay: radioligand inhibition, purified HLA-DR.

The target of assay [7] is T9, HLA-DR DRB1*0701 (human).
T9 chain 1: not shown
T9 chain 2: not shown
Briefly: radioligand inhibition, purified HLA-DR.

The target of assay [8] is T10, HLA-DR DRB4*0101 (human).
T10 chain 1: not shown
T10 chain 2: not shown
Briefly: radioligand inhibition, purified HLA-DR.

Assay [9] addresses T11, HLA-DR DRB1*0301 (human).
T11 chain 1: not shown
T11 chain 2: not shown
Nature of the assay: radioligand inhibition, purified HLA-DR.

In assay [10] the target is T12, HLA-DR molecule DRB1*0101 (human).
T12 chain 1: not shown
T12 chain 2: not shown
Nature of the assay: radioligand inhibition, purified HLA-DR.

Assay [11] deals with T13, HLA-DR molecule DRB5*0101 (human).
T13 chain 1: not shown
T13 chain 2: not shown
Briefly: radioligand inhibition, purified HLA-DR.

Assay [12] deals with T14, HLA-DR molecule DRB1*0701 (human).
T14 chain 1: not shown
T14 chain 2: not shown
Nature of the assay: radioligand inhibition, purified HLA-DR.

For assay [13], the target named is T15, HLA-DR molecule DRB1*0405 (human).
T15 chain 1: not shown
T15 chain 2: not shown
Briefly: radioligand inhibition, purified HLA-DR.

Assay [14] concerns the target T16, HLA-DR molecule DRB1*0404 (human).
T16 chain 1: not shown
T16 chain 2: not shown
Briefly: radioligand inhibition, purified HLA-DR.

Assay [15] has as its target T1, HLA-DR DRB1*0101 (human). Briefly: radioligand competition, purified HLA-DR.
The target in assay [16] is T17, HLA-DR DRB1*1302 (human).
T17 chain 1: not shown
T17 chain 2: not shown
Nature of the assay: radioligand inhibition, purified HLA-DR.

For assay [17], the target named is T18, HLA-DR DRB1*1201 (human).
T18 chain 1: not shown
T18 chain 2: not shown
Briefly: radioligand inhibition, purified HLA-DR.

The target in assay [18] is T3, HLA-DR DRB5*0101 (human). Nature of the assay: radioligand competition, purified HLA-DR.
For assay [19], the target named is T4, HLA-DR DRB1*0404 (human). Nature of the assay: radioligand competition, purified HLA-DR.
Assay [20] addresses T18, HLA-DR DRB1*1201 (human). Briefly: radioligand competition, purified HLA-DR.
The target in assay [21] is T7, HLA-DR DRB1*1101 (human). Briefly: radioligand competition, purified HLA-DR.
For assay [22], the target named is T9, HLA-DR DRB1*0701 (human). Nature of the assay: radioligand competition, purified HLA-DR.
The target of assay [23] is T1, HLA-DR DRB1*0101 (human). Nature of the assay: radiolabeled-peptide inhibition, purified HLA-DR.
Assay [24] deals with T3, HLA-DR DRB5*0101 (human). Nature of the assay: radiolabeled-peptide inhibition, purified HLA-DR.
In assay [25] the target is T5, HLA-DR DRB1*0401 (human). Nature of the assay: radiolabeled-peptide inhibition, purified HLA-DR.
The target of assay [26] is T17, HLA-DR DRB1*1302 (human). Briefly: radiolabeled-peptide inhibition, purified HLA-DR.
The target of assay [27] is T6, HLA-DR DRB1*0405 (human). Nature of the assay: radiolabeled-peptide inhibition, purified HLA-DR.
The target in assay [28] is T7, HLA-DR DRB1*1101 (human). Briefly: radiolabeled-peptide inhibition, purified HLA-DR.
For assay [29], the target named is T10, HLA-DR DRB4*0101 (human). Briefly: radiolabeled-peptide inhibition, purified HLA-DR.
The target in assay [30] is T9, HLA-DR DRB1*0701 (human). Briefly: radiolabeled-peptide inhibition, purified HLA-DR.
The target in assay [31] is T11, HLA-DR DRB1*0301 (human). Nature of the assay: radiolabeled-peptide inhibition, purified HLA-DR.

B1: Peptide 9019.0095 (peptide)
peptide: RPRFRELVSEFSRMA
On to B1, for which the IC50 with HLA-DR DRB1*0101 (human) [1] amounted to 26 nM; in the assay with HLA-DR DRB1*0802 (human) it was 376 nM; in the assay with HLA-DR DRB5*0101 (human) [2] it was 26 nM; with HLA-DR DRB1*0404 (human) [3] it was 62 nM; with HLA-DR DRB1*0401 (human) [4] it was 38 nM; with HLA-DR DRB1*0405 (human) [5] it was 151 nM. Also, the IC50 was found to be 125 nM with HLA-DR DRB1*1101 (human) [6]; 2320 nM with HLA-DR DRB1*0901 (human); 309 nM with HLA-DR DRB1*0701 (human) [7]; 351 nM in the assay with HLA-DR DRB4*0101 (human) [8]; 6220 nM with HLA-DR DRB1*0301 (human) [9].

B2: Peptide 9019.0190 (IGFBP2.249) (peptide)
peptide: ERGPLEHLYSLHIPN
On to B2, for which the IC50 in [10] amounted to 7.7 nM; in assay [11] it was 4000 nM; in [12] it was 18 nM; in [13] it was 110 nM; in [14], 29 nM.

B3: Peptide 9019.0185 (peptide)
peptide: LKSGMKELAVFREKV
On to B3, for which the IC50 in the assay with HLA-DR DRB1*0802 (human) worked out at 260 nM; with HLA-DR DRB1*0405 (human) [5] it was 34 nM.

B4: Cyclin D1.209 (peptide 9019.0171) (peptide)
peptide: VAAVQGLNLRSPNNF
B4: the IC50 in the assay with HLA-DR DRB1*0101 (human) [15] was found to be 44 nM. In other words, the double-digit nanomolar range.

B5: Cyclin D1.109 (peptide)
peptide: PPSMVAAGSVVAAVQ
B5: the IC50 with HLA-DR DRB1*0101 (human) [1] amounted to 6.8 nM; with HLA-DR DRB1*0802 (human), 1400 nM; in the assay with HLA-DR DRB1*1302 (human) [16], 55 nM; with HLA-DR DRB4*0101 (human) [8], 91 nM.

B6: Her/neu.88 (peptide)
peptide: HNQVRQVPLQRLRIV
For B6, the IC50 in the assay with HLA-DR DRB1*0802 (human) came to 9 nM; with HLA-DR DRB1*0404 (human) [3], 78 nM; with HLA-DR DRB1*0401 (human) [4], 840 nM; with HLA-DR DRB1*1302 (human) [16] it was 270 nM; with HLA-DR DRB1*1201 (human) [17], 42 nM; with HLA-DR DRB1*0405 (human) [5], 1300 nM. Moreover, the IC50 with HLA-DR DRB1*1101 (human) [6] came out at 21 nM; with HLA-DR DRB1*0901 (human) it was 6940 nM; with HLA-DR DRB1*0701 (human) [7], 80 nM; with HLA-DR DRB4*0101 (human) [8] it was 18 nM.

B7: CEA.24 (peptide 9019.0105) (peptide)
peptide: LLTFWNPPTTAKLTI
With B7, the half-inhibitory concentration (IC50) turned out to be 6.9 nM with HLA-DR DRB1*0101 (human) [15]; 13 nM with HLA-DR DRB5*0101 (human) [18]; 52 nM with HLA-DR DRB1*0404 (human) [19]; 5000 nM with HLA-DR DRB1*1201 (human) [20]; 52 nM with HLA-DR DRB1*1101 (human) [21]; 3.7 nM with HLA-DR DRB1*0701 (human) [22].

B8: 9019.0050 (peptide)
peptide: ITGYLYISAWPDSLP
Regarding B8, the IC50 with HLA-DR DRB1*0101 (human) [23] was determined as 96 nM; with HLA-DR DRB5*0101 (human) [24], 67 nM; with HLA-DR DRB1*0401 (human) [25], 243 nM; with HLA-DR DRB1*1302 (human) [26], 751 nM; in the assay with HLA-DR DRB1*0405 (human) [27], 8.5 nM; with HLA-DR DRB1*1101 (human) [28], 2570 nM. For the same molecule, the IC50 with HLA-DR DRB4*0101 (human) [29] stood at 270 nM.

B9: 9019.0064 (peptide)
peptide: LQGLPREYVNARHCL
Consider B9, for which the concentration for half-maximal inhibition (IC50) stood at 354 nM in the assay with HLA-DR DRB1*0101 (human) [23]; 201 nM in the assay with HLA-DR DRB1*0401 (human) [25]; 670 nM with HLA-DR DRB1*1302 (human) [26]; 1900 nM with HLA-DR DRB1*0701 (human) [30]; 2550 nM in the assay with HLA-DR DRB4*0101 (human) [29]; 9000 nM with HLA-DR DRB1*0301 (human) [31].

B10: 9019.0002 (peptide)
peptide: GMSYLEDVRLVHRDL
Regarding B10, the half-maximal inhibitory concentration (IC50) came to 3790 nM with HLA-DR DRB1*1302 (human) [26]; 4320 nM with HLA-DR DRB1*0405 (human) [27]; 244 nM in the assay with HLA-DR DRB1*1101 (human) [28]; 5410 nM in the assay with HLA-DR DRB1*0701 (human) [30]; 2540 nM with HLA-DR DRB4*0101 (human) [29]; 27 nM in the assay with HLA-DR DRB1*0301 (human) [31].
